Experimental data from US20080248502A1 (EISAI R AND D MANAGEMENT, published 2008).

Legend:
[1] = target: T1, CAR-AP chimeric protein (extracellular region of mouse CAR linked with human secretory placental alkaline … (mouse; human, UniProt P97792 20-237; P05187 23-511); experiment: adhesion of transfected B300 cells to immobilized CAR-AP
T1 construct: Secreted from 293/EBNA-1 cells; also called CAR-AP chimeric proteins; immobilized CAR

[2] = target: T2, human CAR-AP chimeric protein (extracellular region of human CAR linked with human secretory placental … (human, UniProt P78310 20-237; P05187 23-511); experiment: cell surface binding of human CAR-AP to transfected B300 cells
T2 construct: also called human CAR-AP chimeric proteins

[3] = target: T1, CAR-AP chimeric protein (extracellular …); experiment: SPR (BIAcore X): CAR-AP captured by anti-alkaline phosphatase antibody on CM5 chip, CARL-Fc supernatant at 20, 6 or 0.6 nM
Procedure: Then, a culture supernatant comprising CAR-AP chimeric protein or control AP chimeric protein diluted to 20 nM with HBS-EP buffer (BIAcore) was added to immobilize 500 RU of AP chimeric proteins onto the sensor chip. The protein-protein interactions were measured by adding culture supernatants comprising CARL-Fc chimeric proteins diluted to 20 nM, 6 nM, or 0.6 nM with HBS-EP buffer (BIAcore) at 20 μl/min for 210 seconds.

[4] = target: T1, CAR-AP chimeric protein (extracellular …); experiment: adhesion of CARL-expressing B300 cells to immobilized AP chimeric proteins
[5] = target: T3, CARL-AP chimeric protein (extracellular region of mouse CARL linked with human secretory placental alkaline … (mouse; human, UniProt P05187 23-511); experiment: adhesion of B300/CARL cells to immobilized AP chimeric proteins (method of Example 4, proteins applied at 10 nM)
T3 construct: also called CARL-AP proteins; chimeric protein of ENSMUSG0000048534 with AP
Procedure: Cell adhesion experiments were carried out using AP chimeric proteins to identify molecules functioning as adhesion molecules that adhere to lymphocytes. First, 50 μl of 10 μg/ml anti-alkaline phosphatase antibody (Seradyn MIA1802) was added to 96 well ELISA plates (Nunc), and allowed to stand at 37° C. for 30 minutes to immobilize the antibody. After washing the plates with PBS, the non-specifically binding sites were blocked with BlockAce (Dainippon Pharmaceutical Co.). AP chimeric proteins were diluted to a final concentration of 10 nM, added to the wells, and allowed to stand at room temperature for 30 minutes to immobilize the proteins. Activated lymphocytes were suspended in cell adhesion buffer (RPMI 1640, 0.5% BSA, and 20 mM HEPES (pH 7.4)), fluorescently labeled with Calcein-AM (Dojin), then added to wells at 1×10⁵ cells/well, and incubated at 37° C. for one hour. The non-adherent cells were washed away. A cell lysis solution (10 mM TrisHCl (pH 8.0), 1% TritonX-100) was added, then adherent cells were quantified using Wallac ARVO SX 1420 MULTILABEL COUNTER (Perkin Elmer) and measuring at an excitation wavelength of 485 nm and detection wavelength of 535 nm. The degree of cell adhesion was represented as a percentage ratio of adherent cells to added cells. […]

[6] = target: T4, human CARL-AP chimeric protein (extracellular region of human CARL linked with human secretory placental … (human, UniProt P05187 23-511)); experiment: adhesion of human CAR-expressing B300 cells to immobilized human CARL-AP
T4 construct: also called human CARL-AP chimeric proteins

T1 sequence (P97792 other isoform, or with tags, fused parts or gaps mutant): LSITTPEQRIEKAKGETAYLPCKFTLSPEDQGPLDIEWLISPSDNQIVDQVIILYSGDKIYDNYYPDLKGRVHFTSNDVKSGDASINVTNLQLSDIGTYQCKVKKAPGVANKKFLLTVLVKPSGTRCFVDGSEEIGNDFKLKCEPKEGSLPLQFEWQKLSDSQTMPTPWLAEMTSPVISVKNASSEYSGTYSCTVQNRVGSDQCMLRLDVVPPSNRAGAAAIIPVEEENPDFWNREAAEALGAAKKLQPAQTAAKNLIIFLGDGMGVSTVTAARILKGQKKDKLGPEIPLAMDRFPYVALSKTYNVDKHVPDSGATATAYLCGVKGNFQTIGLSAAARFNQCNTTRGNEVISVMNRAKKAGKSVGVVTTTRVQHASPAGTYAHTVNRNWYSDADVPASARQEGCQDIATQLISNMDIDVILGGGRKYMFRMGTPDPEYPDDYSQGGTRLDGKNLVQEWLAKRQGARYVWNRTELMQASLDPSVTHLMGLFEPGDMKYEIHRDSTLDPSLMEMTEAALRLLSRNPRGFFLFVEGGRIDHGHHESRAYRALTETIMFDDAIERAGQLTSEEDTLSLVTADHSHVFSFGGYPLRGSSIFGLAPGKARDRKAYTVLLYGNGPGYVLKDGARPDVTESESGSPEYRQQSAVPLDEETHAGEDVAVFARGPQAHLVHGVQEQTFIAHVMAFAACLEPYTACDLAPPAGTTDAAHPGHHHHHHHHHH

B1: domain 1-lacking CARL (positions 21 to 29 and 140 to 379) with FLAG tag, expressed on B300 cells (ligand)
chain: QGLPGLTVSPEEPKDLRVRVGDTTQMRCSIQSTEEKRVTKVNWMFSSGSHTEEETVLSYDSNMRSGKFQSLGRFRNRVDLTGDISRNDGSIKLQTVKESDRGIYTCSIYVGKLESRKTIVLHVVQDEFQRTISPTPPTDKGQQGILNGNQLVIIVGIVCATFLLLPVLILIVKKAKWNKSSVSSMASVKSLENKEKINPEKHIYSSITTWETTERGISGESEGTYMTMNPVWPSSPKASSLVRSSVRSK
notes: On cells; also called B300 cells expressing CARL lacking domain 1; not shown: FLAG tag from vector pMX ssFLAG MCS2.2 IRES Puro
B1: no binding [1].

B2: domain 2-lacking CARL (positions 21 to 139 and 255 to 379) with FLAG tag, expressed on B300 cells (ligand)
chain: QGLPGLTVSSPQLRVHVGESVLMGCVVQRTEEKHVDRVDWLFSKDKDDASEYVLFYYSNLSVPTGRFQNRSHLVGDTFHNDGSLLLQDVQKADEGIYTCEIRLKNESMVMKKPVELWVLQDEFQRTISPTPPTDKGQQGILNGNQLVIIVGIVCATFLLLPVLILIVKKAKWNKSSVSSMASVKSLENKEKINPEKHIYSSITTWETTERGISGESEGTYMTMNPVWPSSPKASSLVRSSVRSK
notes: On cells; also called B300 cells expressing CARL lacking domain 2; not shown: FLAG tag from vector pMX ssFLAG MCS2.2 IRES Puro
B2: binds [1].

B3: human CARL (human AMICA), full length, expressed on B300 cells (ligand)
chain: LNDLNVSPPELTVHVGDSALMGCVFQSTEDKCIFKIDWTLSPGEHAKDEYVLYYYSNLSVPIGRFQNRVHLMGDILCNDGSLLLQDVQEADQGTYICEIRLKGESQVFKKAVVLHVLPEEPKELMVHVGGLIQMGCVFQSTEVKHVTKVEWIFSGRRAKEEIVFRYYHKLRMSVEYSQSWGHFQNRVNLVGDIFRNDGSIMLQGVRESDGGNYTCSIHLGNLVFKKTIVLHVSPEEPRTLVTPAALRPLVLGGNQLVIIVGIVCATILLLPVLILIVKKTCGNKSSVNSTVLVKNTKKTNPEIKEKPCHFERCEGEKHIYSPIIVREVIEEEEPSEKSEATYMTMHPVWPSLRSDRNNSLEKKSGGGMPKTQQAF
notes: also called human CARL-expressing B300 cells; B300 cells expressing human CARL
B3: binds [2].

B4: CARL-Fc chimeric protein (mouse CARL) (Fc fusion)
chain: QGLPGLTVSSPQLRVHVGESVLMGCVVQRTEEKHVDRVDWLFSKDKDDASEYVLFYYSNLSVPTGRFQNRSHLVGDTFHNDGSLLLQDVQKADEGIYTCEIRLKNESMVMKKPVELWVLPEEPKDLRVRVGDTTQMRCSIQSTEEKRVTKVNWMFSSGSHTEEETVLSYDSNMRSGKFQSLGRFRNRVDLTGDISRNDGSIKLQTVKESDRGIYTCSIYVGKLESRKTIVLHVVQDEFQRTISPTPPTDKGQQGILNGNQL
notes: The making of CARL-Fc is described nowhere; used as culture supernatant; only its extracellular region is in the construct; also called CARL-Fc chimeric proteins; not shown: Fc part: species, isotype and any linker are not described
A Kd [3] of 4.8 nM was found for B4 in this work.

B5: mouse CARL (CAR ligand; ENSMUSG0000048534), full length, on cells (ligand)
chain: QGLPGLTVSSPQLRVHVGESVLMGCVVQRTEEKHVDRVDWLFSKDKDDASEYVLFYYSNLSVPTGRFQNRSHLVGDTFHNDGSLLLQDVQKADEGIYTCEIRLKNESMVMKKPVELWVLPEEPKDLRVRVGDTTQMRCSIQSTEEKRVTKVNWMFSSGSHTEEETVLSYDSNMRSGKFQSLGRFRNRVDLTGDISRNDGSIKLQTVKESDRGIYTCSIYVGKLESRKTIVLHVVQDEFQRTISPTPPTDKGQQGILNGNQLVIIVGIVCATFLLLPVLILIVKKAKWNKSSVSSMASVKSLENKEKINPEKHIYSSITTWETTERGISGESEGTYMTMNPVWPSSPKASSLVRSSVRSK
notes: also called CARL-expressing B300 cells; similar to AMICA (BC050133)
B5: binds [4]; no binding [5].

B6: full-length CARL (positions 21 to 379) with vector signal sequence and FLAG tag, expressed on B300 cells (ligand)
chain: QGLPGLTVSSPQLRVHVGESVLMGCVVQRTEEKHVDRVDWLFSKDKDDASEYVLFYYSNLSVPTGRFQNRSHLVGDTFHNDGSLLLQDVQKADEGIYTCEIRLKNESMVMKKPVELWVLPEEPKDLRVRVGDTTQMRCSIQSTEEKRVTKVNWMFSSGSHTEEETVLSYDSNMRSGKFQSLGRFRNRVDLTGDISRNDGSIKLQTVKESDRGIYTCSIYVGKLESRKTIVLHVVQDEFQRTISPTPPTDKGQQGILNGNQLVIIVGIVCATFLLLPVLILIVKKAKWNKSSVSSMASVKSLENKEKINPEKHIYSSITTWETTERGISGESEGTYMTMNPVWPSSPKASSLVRSSVRSK
notes: also called B300 cells expressing full-length CARL; not shown: FLAG tag from vector pMX ssFLAG MCS2.2 IRES Puro
B6: binds [1].

B7: human CAR, full length, expressed on B300 cells (receptor, UniProt P78310 20-365, looked up)
chain: LSITTPEEMIEKAKGETAYLPCKFTLSPEDQGPLDIEWLISPADNQKVDQVIILYSGDKIYDDYYPDLKGRVHFTSNDLKSGDASINVTNLQLSDIGTYQCKVKKAPGVANKKIHLVVLVKPSGARCYVDGSEEIGSDFKIKCEPKEGSLPLQYEWQKLSDSQKMPTSWLAEMTSSVISVKNASSEYSGTYSCTVRNRVGSDQCLLRLNVVPPSNKAGLIAGAIIGTLLALALIGLIIFCCRKKRREEKYEKEVHHDIREDVPPPKSRTSTARSYIGSNHSSLGSMSPSNMEGYSKTQYNQVPSEDFERTPQSPTLPPAKVAAPNLSRMGAIPVMIPAQSKDGSIV
notes: whole, on cells; also called human CAR-expressing B300 cells
B7: binds [6].
